# Source: paper PMC4263767, “IL-28B is a Key Regulator of B- and T-Cell Vaccine Responses against Influenza” (PLoS Pathogens, 2014)
# Where two headings read alike, the source gives them in different places.
# B1: IL-28B: recombinant IL-28B, a member of the interferon (IFN)-λ family (protein)
# chain: VPVARLRGALPDARGCHIAQFKSLSPQELQAFKRAKDALEESLLLKDCKCRSRLFPRTWDLRQLQVRERPVALEAELALTLKVLEATADTDPALGDVLDQPLHTLHHILSQLRACIQPQPTAGPRTRGRLHHWLHRLQEAPKKESPGCLEASVTFNLFRLLTRDLNCVASGDLCV
# modifications: left off: His tag, end not stated, kept
# notes: recombinant IL-28B, a member of the interferon (IFN)-λ family
# What was measured:
# [1] = tested on: T-cells, monocytes and macrophages; details: ref [42], [43]; cited from earlier work
# Excerpt: The IFN-λ family (Interleukin-28A, -28B, -29, and IFN-λ4) is a recently described class of IFNs with antiviral properties similar to IFN-α and -β [14]–[17]. IFN-λ is known to induce phosphorylation of STAT-1 and -2 via binding to its receptor, which is a heterodimer consisting of the IL-28 receptor alpha subunit (IL28RA) and IL-10 receptor beta subunit (IL10RB). […] Furthermore, IFN-λs induced the development of T-regu ... || IL-28B (IFN-λ3) belongs to the family of IFN-lambdas and shares antiviral properties similar to IFN-α via induction of interferon stimulated genes (ISGs) such as MX1 or OAS1 [41]. […] IL-12 is a key cytokine for the induction of Th1 cells and cytotoxic lymphocytes, [43]. SNPs in the IL-28B gene (minor-allele genotypes) have been associated with reduced IL-28B expression, [29]–[33], which could impact adaptive immune functions during vaccination. One limitation of our study is that we d ...
# [2] = tested on: PBMCs from healthy volunteers; assay: Cytokine release by H1N1-stimulated healthy volunteer PBMCs, 5 days (luminex); assay type: cell-based, human
# [3] = tested on: PBMCs from healthy volunteers; assay type: cell-based, human
# [4] = tested on: PBMCs from healthy volunteers; assay type: cell-based, human; details: 0 ng/mL: 19.2%, p = 0.92
# Procedure: Prior to surface staining, LIVE/DEAD staining was performed (near-IR; Invitrogen). Markers for identifying T-cell subsets were CD3, and CD4. Intracellular cytokine staining was performed according to previously published protocols after overnight stimulation. IL-4 was used as a key representative for Th2 cytokine production. Background (unstimulated samples) were subtracted from stimulated results. All reagents including perm and fixation buffers and antibodies were from eBioscience. Isotype controls have previously been used to establish the assays.
# [5] = with IL-28B, 5-day H1N1, HV PBMCs n=9, median (IQR)
molecule,measurement,setting,value
B1,IL-12 production in monocytes and macrophages,[1],induce IL-12 production in monocytes and macrophages
same,production of B-cell trophic and Th2 cytokines (in words),"[2]; 5-day H1N1, n = 9","significant decrease in the production of cytokines trophic for B-cells such as GRO, Fractalkine, and Th2-cytokines (IL-4, IL-5, IL-9, and IL-13)"
same,"IFN-α2, ratio IL28/no IL28","[2]; 5-day H1N1, p=0.004",1.7
same,"sIL2Ra, ratio IL28/no IL28","[2]; 5-day H1N1, p=0.004",0.6
same,"Fractalkine, ratio IL28/no IL28","[2]; 5-day H1N1, p=0.008",0.3
same,"GRO, ratio IL28/no IL28","[2]; 5-day H1N1, p=0.008",0.0
same,"IL-9, ratio IL28/no IL28","[2]; 5-day H1N1, p=0.008",0.2
same,"sCD40L, ratio IL28/no IL28","[2]; 5-day H1N1, p=0.01",0.4
same,"IL-5, ratio IL28/no IL28","[2]; 5-day H1N1, p=0.02",0.0
same,"IL-13, ratio IL28/no IL28","[2]; 5-day H1N1, p=0.02",0.6
same,"IL-4, ratio IL28/no IL28","[2]; 5-day H1N1, p=0.03",0.5
same,"IL-6, ratio IL28/no IL28","[2]; 5-day H1N1, p=0.03",1.3
same,"TGF-α, ratio IL28/no IL28","[2]; 5-day H1N1, p=0.03",1.3
same,"IL-1β, ratio IL28/no IL28","[2]; 5-day H1N1, p=0.04",1.9
same,"IP-10, ratio IL28/no IL28","[2]; 5-day H1N1, p=0.08",0.3
same,"FLT3, ratio IL28/no IL28","[2]; 5-day H1N1, p=0.11",0.5
same,"IL-3, ratio IL28/no IL28","[2]; 5-day H1N1, p=0.16",0.3
same,"TNF-β, ratio IL28/no IL28","[2]; 5-day H1N1, p=0.16",0.6
same,"IL-15, ratio IL28/no IL28","[2]; 5-day H1N1, p=0.17",0.9
same,"MCP-3, ratio IL28/no IL28","[2]; 5-day H1N1, p=0.25",1.1
same,"PDGF AA, ratio IL28/no IL28","[2]; 5-day H1N1, p=0.25",1.0
same,"FGF2, ratio IL28/no IL28","[2]; 5-day H1N1, p=0.31",0.8
same,"GM-CSF, ratio IL28/no IL28","[2]; 5-day H1N1, p=0.38",0.7
same,"IFN-γ, ratio IL28/no IL28","[2]; 5-day H1N1, p=0.43",0.9
same,"IL-12p40, ratio IL28/no IL28","[2]; 5-day H1N1, p=0.44",0.7
same,"MIP-1β, ratio IL28/no IL28","[2]; 5-day H1N1, p=0.46",1.2
same,"Eotaxin, ratio IL28/no IL28","[2]; 5-day H1N1, p=0.47",0.5
same,"MCP-1, ratio IL28/no IL28","[2]; 5-day H1N1, p=0.55",0.4
same,"TNF-α, ratio IL28/no IL28","[2]; 5-day H1N1, p=0.55",1.0
same,"IL-12p70, ratio IL28/no IL28","[2]; 5-day H1N1, p=0.64",0.7
same,"IL-17, ratio IL28/no IL28","[2]; 5-day H1N1, p=0.69",0.2
same,"MIP-1α, ratio IL28/no IL28","[2]; 5-day H1N1, p=0.74",1.1
same,"RANTES, ratio IL28/no IL28","[2]; 5-day H1N1, p=0.74",1.2
same,"G-CSF, ratio IL28/no IL28","[2]; 5-day H1N1, p=0.75",1.0
same,"IL-7, ratio IL28/no IL28","[2]; 5-day H1N1, p=0.75",1.0
same,"IL-1α, ratio IL28/no IL28","[2]; 5-day H1N1, p=0.82",1.1
same,"IL-10, ratio IL28/no IL28","[2]; 5-day H1N1, p=0.82",1.0
same,"VEGF, ratio IL28/no IL28","[2]; 5-day H1N1, p=0.82",1.2
same,"IL-1ra, ratio IL28/no IL28","[2]; 5-day H1N1, p=0.84",1.1
same,"IL-2, ratio IL28/no IL28","[2]; 5-day H1N1, p=0.84",2.0
same,"IL-8, ratio IL28/no IL28","[2]; 5-day H1N1, p=0.95",0.9
same,"PDGF AB/BB, ratio IL28/no IL28","[2]; 5-day H1N1, p=0.95",1.3
same,"EGF, ratio IL28/no IL28","[2]; 5-day H1N1, p=1.00",1.0
same,"MDC, ratio IL28/no IL28","[2]; 5-day H1N1, p=1.00",1.0
same,"Th2-cytokines (in words, abstract)",[2]; in vitro,"suppressed Th2-cytokines (e.g. IL-4, IL-5, and IL-13)"
same,EGF,[2]; [5],3.7 (3.7-3.7) pg/mL
same,Eotaxin,[2]; [5],3.2 (3.2-6.9) pg/mL
same,FGF2,[2]; [5],13.1 (3.8-19.2) pg/mL
same,FLT3,[2]; [5],4.0 (3.2-9.4) pg/mL
same,Fractalkine,[2]; [5],4.2 (0.6-10.7) pg/mL
same,G-CSF,[2]; [5],3.2 (3.2-4.2) pg/mL
same,GM-CSF,[2]; [5],358.9 (3.2-480.7) pg/mL
same,GRO,[2]; [5],3.6 (3.6-3.6) pg/mL
same,IFN-α2,[2]; [5],2262.0 (808.2-3663.0) pg/mL
same,IFN-γ,[2]; [5],6028.0 (3513.0-9802.0) pg/mL
same,IL-1ra,[2]; [5],376.6 (3.2-838.8) pg/mL
same,IL-1α,[2]; [5],15.1 (7.8-18.6) pg/mL
same,IL-1β,[2]; [5],16.8 (6.8-29.2) pg/mL
same,IL-2,[2]; [5],16.5 (0.6-60.4) pg/mL
same,IL-3,[2]; [5],0.8 (0.6-3.5) pg/mL
same,IL-4,[2]; [5],16.2 (6.1-33.1) pg/mL
same,IL-5,[2]; [5],0.6 (0.6-8.3) pg/mL
same,IL-6,[2]; [5],215.5 (69.4-864.5) pg/mL
same,IL-7,[2]; [5],3.2 (3.2-3.2) pg/mL
same,IL-8,[2]; [5],1308.0 (789.8-1567.0) pg/mL
same,IL-9,[2]; [5],1.3 (0.6-6.7) pg/mL
same,IL-10,[2]; [5],2597.0 (2063.0-4353.0) pg/mL
same,IL-12p40,[2]; [5],3.2 (3.2-6.1) pg/mL
same,IL-12p70,[2]; [5],1.6 (1.0-2.3) pg/mL
same,IL-13,[2]; [5],96.8 (0.6-126.7) pg/mL
same,IL-15,[2]; [5],2.7 (1.2-3.0) pg/mL
same,IL-17,[2]; [5],0.6 (0.6-30.7) pg/mL
same,IP-10,[2]; [5],219.8 (3.2-2804.0) pg/mL
same,MCP-1,[2]; [5],53.8 (7.9-145.3) pg/mL
same,MCP-3,[2]; [5],9988.0 (8889.0-12741.0) pg/mL
same,MDC,[2]; [5],16.0 (16.0-27.2) pg/mL
same,MIP-1α,[2]; [5],5759.0 (2283.0-6915.0) pg/mL
same,MIP-1β,[2]; [5],3575.0 (1795.0-5820.0) pg/mL
same,PDGF AA,[2]; [5],0.6 (0.6 – 0.6) pg/mL
same,PDGF AB/BB,[2]; [5],8.9 (1.3-18.2) pg/mL
same,RANTES,[2]; [5],3640.0 (1941.0-6677.0) pg/mL
same,TGF-α,[2]; [5],11.8 (9.7-17.0) pg/mL
same,TNF-α,[2]; [5],297.0 (3.1-449.6) pg/mL
same,TNF-β,[2]; [5],12.0 (1.0-27.4) pg/mL
same,VEGF,[2]; [5],34.6 (15.6-46.3) pg/mL
same,sCD40L,[2]; [5],253.0 (140.1-456.3) pg/mL
same,sIL2Ra,[2]; [5],192.2 (140.8-236.1) pg/mL
same,reduction of IgG-production,"[3]; abstract, in vitro",> 70%
same,lower H1N1-stimulated IgG antibody production,"[3]; highest dose of IL-28B (100 ng/mL), 5-day H1N1, n = 8",70%
same,median % dead cells,[4]; IL-28B 1 ng/mL,19.9%
same,median % dead cells,[4]; IL-28B 10 ng/mL,23.6%
same,median % dead cells,[4]; IL-28B 100 ng/mL,22.6%
